A short description of data set [1]: Enzyme activity and kinetic analysis of yCD series recombinant proteins (5-FC converted into 5-FU). The following applies: 50 nM protein. Type of data set: biochemical. As for the experimental part:
FIGS. 2A-2B show the enzyme activities of RGD4C-yCD, yCD, RGD4C-yCD/UPRT and yCD/UPRT proteins to convert 5-FC to 5-FU. 50 nM of RGD4C-yCD, yCD, RGD4C-yCD/UPRT or yCD/UPRT protein reacted with increasing concentrations of 5-FC in phosphate buffered saline solutions. […] The measured data was used to plot the enzyme kinetic curve that takes the substrate concentration [S] as the x-axis and takes the initial reaction rate V0 as the y-axis,
The enzyme activity of 5-FC converted into 5-FU by RGD4C-yCD, yCD, RGD4C-yCD/UPRT and yCD/UPRT is performed. The recombinant protein concentration (50 nM) added with 5-FC at different concentrations. The 5-FC consumption and the generated amount of 5-FU is calculated. The measured data is taken as the x-axis by the substrate concentration [S]; the initial reaction rate V0 is the kinetic curve by making a diagramthe with y-axis (see FIG. 2A and FIG. 2B); the non-linear regression is made by the prism software according to the Michaelis-Menten equation; calculate the enzyme kinetic parameter Km and Vmax. […] It is speculated that the yCD function in each fusion protein is similar, but yUPRT may affect the effects of yCD and 5-FC.

The target in a further data set is integrin αvβ3 receptor (Homo sapiens, UniProt P05106+P06756). In words: ELISA binding assay of yCD series recombinant protein to integrin αvβ3 receptor. The following applies: ELISA. As for the experimental part:
FIGS. 3A-3B show the binding affinity and specificity of RGD4C-yCD, yCD, RGD4C-yCD/UPRT and yCD/UPRT proteins to integrin αvβ3. The binding affinities of RGD4C-yCD, yCD, RGD4C-yCD/UPRT and yCD/UPRT proteins to integrin αvβ3 were determined by ELISA assay using horseradish peroxidase (HRP)-tagged anti-His6 antibody (FIG. 3A). The dissociation constant Kd is obtained by prism software with curve fitting method. […] (*compared with untreated RGDfv group, P<0.05)
The specific binding ability of RGD4C-yCD, yCD, RGD4C-yCD/UPRT and yCD/UPRT recombinant protein to integrin αvβ3 receptor is analyzed by ELISA binding assay, plotted with prism software and made with curve fitting to find the dissociation constant Kd value.

The subject of the next data set is HUVEC and U87MG cells. In words: Fluorescence microscopy of binding and distribution of yCD series fusion proteins. It counts as cell-based, human. The following applies: 500 nM protein, 4° C., 2 hours. As for the experimental part: (FIG. 8A) or 37° C. […] (FIG. 8C) or 37° C. (FIG. 8D) for 2 hours, and then the fluorescent staining is performed for the cells, and the confocal fluorescence microscope is used to observe the distribution of protein in cells. (Green signal: β3 integrin; red signal: anti-His6-tag (also represents the signal of the fusion protein); blue signal: Hoechst 33342 cell nuclear stain) (Calibration scale: 20 μm).
HUVEC and U87MG cells are co-cultured with culture medium containing 500 nM RGD4C-yCD and RGD4C-yCD/UPRT protein at 4° C. and 37° C. for 2 hours, then the cells are stained with fluorescence, and the distribution in the cell is observed by conjugated fluorescence microscopy.

Data set [2] in a line: Enzyme kinetic analysis of EcCD series fusion proteins, substrate 5-FC. Type of data set: biochemical. From the text: FIGS. 11A-11D show the activity and kinetics analysis of EcCD series fusion protein enzymes, and the EcCD series proteins are combined with 5-FC at different concentrations for reaction. Respectively calculate the 5-FU formation reaction rate shown in FIG. 11A, 5-FC consumption reaction rate shown in FIG. 10B, uracil formation reaction rate shown in FIG. 10C and cytosine consumption reaction rate shown in FIG. 10D, substitute Michaelis-Menten formula, and calculate the base mass (Kcat) and Km value catalyzed by each mol enzyme in unit time.

Data set [3] in a line: Enzyme kinetic analysis of EcCD series fusion proteins, substrate cytosine. It counts as biochemical. From the text:
FIGS. 11A-11D show the activity and kinetics analysis of EcCD series fusion protein enzymes, and the EcCD series proteins are combined with 5-FC at different concentrations for reaction. Respectively calculate the 5-FU formation reaction rate shown in FIG. 11A, 5-FC consumption reaction rate shown in FIG. 10B, uracil formation reaction rate shown in FIG. 10C and cytosine consumption reaction rate shown in FIG. 10D, substitute Michaelis-Menten formula, and calculate the base mass (Kcat) and Km value catalyzed by each mol enzyme in unit time. […]

Data set [4] can be described thus: Relative substrate selectivity of cytosine deaminase enzyme for 5-FC and cytosine (formula 1). The following applies: relative substrate selectivity to 5-FC. It counts as biochemical. From the text:
Evaluation of the relative substrate selectivity of cytosine deaminase enzyme for 5-FC and Cytosine can be expressed by the following formula 1,
The higher the value, the higher the selectivity of the enzyme to the 5-FC substrate.

Chain of integrin αvβ3 receptor (P06756 31-889 limits assumed): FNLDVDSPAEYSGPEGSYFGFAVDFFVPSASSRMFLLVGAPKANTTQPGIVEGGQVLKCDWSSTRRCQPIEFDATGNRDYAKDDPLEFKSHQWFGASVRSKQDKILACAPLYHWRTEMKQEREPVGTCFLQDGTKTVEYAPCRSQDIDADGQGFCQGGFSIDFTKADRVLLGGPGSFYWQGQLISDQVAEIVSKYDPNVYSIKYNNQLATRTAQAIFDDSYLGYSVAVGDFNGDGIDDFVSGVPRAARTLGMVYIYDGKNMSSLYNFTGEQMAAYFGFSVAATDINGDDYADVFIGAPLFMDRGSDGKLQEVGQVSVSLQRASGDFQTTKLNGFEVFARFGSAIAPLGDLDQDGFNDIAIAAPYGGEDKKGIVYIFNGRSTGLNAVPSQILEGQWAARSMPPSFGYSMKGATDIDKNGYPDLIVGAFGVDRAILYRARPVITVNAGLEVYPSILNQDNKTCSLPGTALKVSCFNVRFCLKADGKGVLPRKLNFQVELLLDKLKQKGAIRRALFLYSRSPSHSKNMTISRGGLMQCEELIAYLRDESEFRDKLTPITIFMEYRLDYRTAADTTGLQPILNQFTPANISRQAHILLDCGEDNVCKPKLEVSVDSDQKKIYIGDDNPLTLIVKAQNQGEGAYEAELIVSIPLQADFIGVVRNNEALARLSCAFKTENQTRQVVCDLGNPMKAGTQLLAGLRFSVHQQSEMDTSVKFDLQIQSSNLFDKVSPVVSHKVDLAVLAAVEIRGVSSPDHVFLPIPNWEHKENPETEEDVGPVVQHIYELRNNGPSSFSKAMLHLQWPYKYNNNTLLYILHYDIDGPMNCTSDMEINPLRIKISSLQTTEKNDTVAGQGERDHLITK
Chain of integrin αvβ3 receptor (P06756 891-1048 partner limits assumed): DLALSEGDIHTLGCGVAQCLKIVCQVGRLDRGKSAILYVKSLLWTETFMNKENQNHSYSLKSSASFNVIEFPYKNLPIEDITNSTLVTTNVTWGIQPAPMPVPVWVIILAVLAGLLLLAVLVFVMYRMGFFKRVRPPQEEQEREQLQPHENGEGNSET
Chain of integrin αvβ3 receptor (P05106 27-788): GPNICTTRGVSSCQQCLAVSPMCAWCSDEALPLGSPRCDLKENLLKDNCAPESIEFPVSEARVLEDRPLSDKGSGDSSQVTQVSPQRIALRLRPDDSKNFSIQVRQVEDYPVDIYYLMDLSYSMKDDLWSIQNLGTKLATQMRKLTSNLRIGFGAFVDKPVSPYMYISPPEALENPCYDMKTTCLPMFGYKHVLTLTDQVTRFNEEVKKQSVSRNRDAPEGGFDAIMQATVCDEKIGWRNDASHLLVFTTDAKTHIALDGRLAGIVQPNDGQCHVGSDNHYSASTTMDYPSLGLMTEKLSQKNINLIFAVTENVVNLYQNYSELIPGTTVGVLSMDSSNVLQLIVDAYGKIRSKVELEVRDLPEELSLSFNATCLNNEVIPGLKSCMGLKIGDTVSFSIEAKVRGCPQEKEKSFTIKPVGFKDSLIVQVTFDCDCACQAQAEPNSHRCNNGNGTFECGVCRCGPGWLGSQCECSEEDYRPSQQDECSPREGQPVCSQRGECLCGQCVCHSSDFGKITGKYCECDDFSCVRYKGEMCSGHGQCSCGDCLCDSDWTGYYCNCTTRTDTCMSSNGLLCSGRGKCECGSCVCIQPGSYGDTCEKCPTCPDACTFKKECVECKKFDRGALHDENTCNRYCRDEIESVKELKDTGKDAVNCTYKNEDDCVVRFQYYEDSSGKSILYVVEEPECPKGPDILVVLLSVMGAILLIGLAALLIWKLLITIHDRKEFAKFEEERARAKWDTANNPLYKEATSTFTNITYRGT

B1: yCD: yeast cytosine deaminase (yCD) (SEQ ID NO: 1), recombinant protein without target molecule (protein)
chain: MVVTGGMASKWDQKGMDIAYEEAALGYKEGGVPIGGCLINNKDGSVLGRGHNMRFQKGSATLHGEISTLENCGRLEGKVYKDTTLYTTLSPCDMCTGAIIMYGIPRCVVGENVNFKSKGEKYLQTRGHEVVVVDDERCKKIMKQFIDERPQDWFEDIGELEHHHHHH
modifications: yCD
As for B1, the Michaelis-Menten constant (Km) in data set [1] (calculated by 5-FC consumption) is 700 ± 100 µM; in data set [1] (calculated by 5-FU formation), 1000 ± 100 µM; in data set [2] (5-FC consumption (Table 5)), 1000 ± 100 µM; in data set [2] (5-FU generation), 1000 ± 100 µM; in data set [3] (cytosine consumption), 4700 ± 1300 µM; in data set [3] (uracil generation) it was 3900 ± 200 µM. In addition, the maximal velocity (Vmax) in data set [1] (calculated by 5-FC consumption) is 175.8 ± 4.7 µM/min; in data set [1] (calculated by 5-FU formation) it was 164.2 ± 4.7 µM/min. Further, the “binding to integrin αvβ3” value in the data set with integrin αvβ3 receptor is “cannot be bound”. Besides, in the data set with HUVEC and U87MG cells, the “binding and distribution in cells” value was “can not be effectively bound”. The Kcat in data set [2] (5-FC consumption (Table 5)) was 48.5 ± 1.3 s⁻¹; in data set [2] (5-FU generation), 47.2 ± 0.9 s⁻¹; in data set [3] (cytosine consumption), 55.6 ± 8.5 s⁻¹; in data set [3] (uracil generation), 54.6 ± 1.3 s⁻¹. Also, in data set [4], the “[Kcat/Km(5-FC)]/{[Kcat/Km(cytosine)] + [Kcat/Km(5-FC)]}” value came to 0.771.

Source of the values: patent US10947270B2, “Targeted prodrug cytosine deaminase fusion carrier and application thereof” (National Yang-Ming University, priority 2015, dated 2021).
